In paper PMC8633789, “Transmembrane topology and oligomeric nature of an astrocytic membrane protein, MLC1” (Open Biology, 2021):

Columns and labels:
[1] = target: CLC-ck2; test: SEC-MALS; SEC-MALS-RI, Superdex-200 Increase 10/300 GL, 1 mg/ml in 200 µl, 150 mM NaCl, 20 mM HEPES pH 7.5, 2 mM DDM
[2] = target: codon-optimized chicken MLC1 with 6× His-tag (chicken); test: cross-linking; glutaraldehyde (400-fold molar excess) on protein-detergent micelles (0.5-0.9 µg protein/µl), 1, 10 or 30 min at 23°C, SDS-PAGE; cross-linking largely inhibited with 2% SDS
[3] = target: the molecule itself; test: as above
[4] = target: the molecule itself; test: single-molecule photobleaching (TIRFM); proteoliposomes (POPE:POPG 3:1, 0.1 mol% biotinyl CAP-PE, 0.4 µg protein/mg lipid) immobilised on a coated coverslip; distribution of GFP bleaching steps compared with binomial models, p = 0.8
[5] = target: the molecule itself; test: SEC-MALS; SEC-MALS-RI, Superdex-200 Increase 10/300 GL, 1 mg/ml in 200 µl, 150 mM NaCl, 20 mM HEPES pH 7.5, 2 mM DDM

CLC-ck2 (natural protein)
stoichiometry N [1]: 2

codon-optimized chicken MLC1 with 6× His-tag (natural protein)
stoichiometry N [2]: 3

B1: 3× Flag-tagged human MLC1 (natural protein, UniProt Q15049-1 1-377, looked up)
chain: MTQEPFREELAYDRMPTLERGRQDPASYAPDAKPSDLQLSKRLPPCFSHKTWVFSVLMGSCLLVTSGFSLYLGNVFPAEMDYLRCAAGSCIPSAIVSFTVSRRNANVIPNFQILFVSTFAVTTTCLIWFGCKLVLNPSAININFNLILLLLLELLMAATVIIAARSSEEDCKKKKGSMSDSANILDEVPFPARVLKSYSVVEVIAGISAVLGGIIALNVDDSVSGPHLSVTFFWILVACFPSAIASHVAAECPSKCLVEVLIAISSLTSPLLFTASGYLSFSIMRIVEMFKDYPPAIKPSYDVLLLLLLLVLLLQAGLNTGTAIQCVRFKVSARLQGASWDTQNGPQERLAGEVARSPLKEFDKEKAWRAVVVQMAQ
notes: human MLC1 (megalencephalic leukoencephalopathy with subcortical cysts protein 1), cDNA NM_015166.3 from GenScript; The predicted mass of the tagged monomer (approx. 44 kDa) fits the whole protein; also called 3× Flag-hMLC1; hMLC1; not shown: 3× Flag, N-terminal, kept
stoichiometry N [3]: 3

B2: 3× Flag-tagged hMLC1-GFP (natural protein, human, UniProt Q15049-1 1-377, looked up)
chain: B1 chain
notes: human MLC1, cDNA NM_015166.3; probably as for 3× Flag-hMLC1 (HEK293S GnTI-); also called 3× F-hMLC1-G; 3× F-hMLC1-GFP; source: reconstituted into POPE:POPG proteoliposomes; not shown: 3× Flag, N-terminal, kept; GFP, C-terminal, kept
stoichiometry N [4]: 3

B3: CLC-ec1 (natural protein, UniProt P37019 1-473, looked up)
chain: MKTDTPSLETPQAARLRRRQLIRQLLERDKTPLAILFMAAVVGTLVGLAAVAFDKGVAWLQNQRMGALVHTADNYPLLLTVAFLCSAVLAMFGYFLVRKYAPEAGGSGIPEIEGALEDQRPVRWWRVLPVKFFGGLGTLGGGMVLGREGPTVQIGGNIGRMVLDIFRLKGDEARHTLLATGAAAGLAAAFNAPLAGILFIIEEMRPQFRYTLISIKAVFIGVIMSTIMYRIFNHEVALIDVGKLSDAPLNTLWLYLILGIIFGIFGPIFNKWVLGMQDLLHRVHGGNITKWVLMGGAIGGLCGLLGFVAPATSGGGFNLIPIATAGNFSMGMLVFIFVARVITTLLCFSSGAPGGIFAPMLALGTVLGTAFGMVAVELFPQYHLEAGTFAIAGMGALLAASIRAPLTGIILVLEMTDNYQLILPMIITGLGATLLAQFTGGKPLYSAILARTLAKQEAEQLARSKAASASENT
notes: CLC-ec1, control membrane protein, approximately 100 kDa as a dimer; also called CLC-ec1 dimer
stoichiometry N [5]: 2
